The text below walks through data of patent US20250115669A1, “FGFR1/KLB Targeting Agonistic Antigen-Binding Proteins and Conjugates Thereof with GLP-1R Agonistic Peptides” (SANOFI, priority 2020, published 2025).

The target in series [1] is T1, human beta-Klotho (Homo sapiens, UniProt Q86Z14).
T1 sequence (Q86Z14 1-1044): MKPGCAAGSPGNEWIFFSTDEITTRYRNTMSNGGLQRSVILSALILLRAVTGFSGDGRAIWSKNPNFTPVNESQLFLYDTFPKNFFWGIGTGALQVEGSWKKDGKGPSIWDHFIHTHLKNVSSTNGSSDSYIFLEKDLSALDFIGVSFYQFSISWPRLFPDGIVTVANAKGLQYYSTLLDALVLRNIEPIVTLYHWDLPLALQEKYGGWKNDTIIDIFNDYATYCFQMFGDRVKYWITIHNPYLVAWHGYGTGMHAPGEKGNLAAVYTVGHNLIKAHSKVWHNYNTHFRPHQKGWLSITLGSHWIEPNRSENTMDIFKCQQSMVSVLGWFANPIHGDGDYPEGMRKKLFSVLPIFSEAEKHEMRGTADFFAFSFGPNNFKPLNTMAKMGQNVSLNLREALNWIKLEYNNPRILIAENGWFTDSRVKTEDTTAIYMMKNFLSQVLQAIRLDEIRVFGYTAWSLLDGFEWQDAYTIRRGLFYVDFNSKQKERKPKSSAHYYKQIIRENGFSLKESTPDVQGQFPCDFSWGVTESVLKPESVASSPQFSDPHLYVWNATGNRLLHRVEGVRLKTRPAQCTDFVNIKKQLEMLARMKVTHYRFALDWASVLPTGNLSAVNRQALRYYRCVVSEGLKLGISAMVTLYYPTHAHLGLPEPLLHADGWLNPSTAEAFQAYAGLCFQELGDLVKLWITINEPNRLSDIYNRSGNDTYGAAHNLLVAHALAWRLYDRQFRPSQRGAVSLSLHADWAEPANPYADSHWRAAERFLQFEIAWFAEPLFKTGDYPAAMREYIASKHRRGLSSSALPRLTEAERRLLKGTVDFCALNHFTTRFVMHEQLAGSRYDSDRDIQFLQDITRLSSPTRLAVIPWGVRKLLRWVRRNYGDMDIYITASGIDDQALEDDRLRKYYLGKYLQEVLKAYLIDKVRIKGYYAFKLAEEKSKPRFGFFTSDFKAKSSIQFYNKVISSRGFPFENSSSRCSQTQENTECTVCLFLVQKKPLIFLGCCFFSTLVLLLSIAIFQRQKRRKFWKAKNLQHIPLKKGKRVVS
Kind of series: SPR off-rate screening of antibody mutants (human beta-Klotho captured by anti-His antibody). In kind it is binding. As to conditions: mean, n=3. The method, boiled down: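 Using beta-Klotho bound through its His tag to an anti-His capture surface, we measure dissociation of 50 nmol/L antibody analytes over 300 sec following 240 sec of association; surfaces are regenerated between cycles and kd is fitted single-exponentially.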

The nature of series [2]: In vivo PK in transgenic humanized FcRn mice (Tg32). As to conditions: 0.3 mg/kg single IV, plasma, noncompartmental analysis. The method, then:
In vivo PK studies were conducted in transgenic humanized FcRn mice (Tg32). For these studies, no GLP compliance was claimed.

B1: Ab0314: IgG4 PE; 16H7 VL (N25S, D91T, N93E); 16H7 VH (M34V, I83T, D109E) (antibody)
VH: QVTLKESGPVLVKPTETLTLTCTVSGFSLNNARVGVSWIRQPPGKALEWLAHIFSNDEKSYSTSLKSRLTISKDTSKSQVVLTMTNMDPVDTATYYCARSVVTGGYYYEGMDVWGQGTTVTVSS
light: SYVLTQPPSVSVAPGQTARITCGGSNIGSESVHWYQQKPGQAPVLVVYDDSDRPSGIPERFSGSNSGNTATLTISRVEAGDEADYYCQVWTGESDHVVFGGGTKLTVLGQPKANPTVTLFPPSSEELQANKATLVCLISDFYPGAVTVAWKADGSPVKAGVETTKPSKQSNNKYAASSYLSLTPEQWKSHRSYSCQVTHEGSTVEKTVAPTECS
As to B1, in series [1], the “koff human KLB” value is 0.000402 s⁻¹. Also, the t½ in series [2] came out at 18 days.

A word on the t½: it is the time in which the quantity being followed falls by half.
